Laboratory results published in patent publication US20250074942A1, “COMPOSITIONS AND METHODS FOR COVALENT PEPTIDE-BASED MODULATORS OF HLA-E” (Calico Life Sciences LLC, priority 2022, published 2025).

B1: VL9-4 Cys(mSF) (peptide)
peptide: VMACRTLFL
modifications: not checked
B2: VL9-3 Cys(mSF) (peptide)
peptide: VMCPRTLFL
modifications: not checked
B3: VL9-7 Cys(mSF) (peptide)
peptide: VMAPRTCFL
modifications: not checked
B4: VL9-8 Cys(mSF) (peptide)
peptide: VMAPRTLCL
modifications: not checked

biological target: HLA-E/B2M complex, refolded and biotinylated ([HLAE(hu)(22-305)]-Avitag + [B2M(h)(21-119)]) (human), P13747; test: cross-linking, 10-fold excess over [HLA-E+VL9], 4 h 37 C, LC-MS

**Q.** B1 was tested. Which % cross-linking with HLA-E did it give?
**A.** 36%

**Q.** With B2 as the binder, how does the % cross-linking with HLA-E read?
**A.** 73%

**Q.** How did the % cross-linking with HLA-E turn out when B3 was run?
**A.** 22%

**Q.** With B4 as the binder, how does the % cross-linking with HLA-E read?
**A.** 87%
